Measured values reported in US20240216557A1 (Memorial Sloan Kettering, published 2024).

T1: DLL3 on H82 xenograft tumor cells (UniProt Q9NYJ7 27-618, limits assumed)
T1 construct: whole, on cells; H82 is a human SCLC line by general knowledge
T1 sequence (looked up): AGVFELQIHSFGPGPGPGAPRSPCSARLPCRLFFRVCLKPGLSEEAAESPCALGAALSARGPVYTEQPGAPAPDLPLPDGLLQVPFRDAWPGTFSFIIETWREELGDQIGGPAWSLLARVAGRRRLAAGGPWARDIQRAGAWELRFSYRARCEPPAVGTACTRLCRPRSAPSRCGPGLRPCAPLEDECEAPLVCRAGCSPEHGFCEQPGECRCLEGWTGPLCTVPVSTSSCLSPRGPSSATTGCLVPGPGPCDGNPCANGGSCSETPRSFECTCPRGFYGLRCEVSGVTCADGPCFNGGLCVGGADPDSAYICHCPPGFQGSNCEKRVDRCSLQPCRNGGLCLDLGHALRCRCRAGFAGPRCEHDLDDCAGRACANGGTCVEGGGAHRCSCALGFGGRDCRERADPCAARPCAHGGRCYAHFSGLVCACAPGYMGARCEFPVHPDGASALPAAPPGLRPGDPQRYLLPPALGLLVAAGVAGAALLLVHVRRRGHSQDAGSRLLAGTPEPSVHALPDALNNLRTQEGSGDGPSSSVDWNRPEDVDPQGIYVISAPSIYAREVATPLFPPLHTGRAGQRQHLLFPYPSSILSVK


Legend:
[1] = molecular target: T1, DLL3 on H82 xenograft tumor cells; assay: immunoPET imaging of athymic mice bearing right flank subcutaneous H82 xenografts after tail vein injection of the Zr-89 labelled antibody; time point not printed on the sheet
Method: (§1) To ensure adequate binding to DLL3 in vivo, the three antibodies were first bioconjugated to p-SCN-Bn-DFO chelators and then radiolabeled with Zr-89 for injection via tail vein into athymic female mice bearing right flank subcutaneous H82 xenografts (250-300 Ci, 30 μg). ImmunoPET imaging was performed every 24 h until 120 h, when a terminal ex vivo biodistribution study was performed.

[2] = molecular target: T1, DLL3 on H82 xenograft tumor cells; assay: immunoPET and ex vivo biodistribution of the Zr-89 labeled antibody in mice with H82 xenografts
Method: as §1

Binder | binding result [1] | binding result [2]
[89Zr]Zr-DFO-J8 antibody (antibody, V domains shown, p-SCN-Bn-DFO chelator bioconjugated to the antibody (sites not given), radiolabeled with Zr-89, also called J8 (monoclonal IgG4, DFO-conjugated, Zr-89 labeled)) VH: QVHLVQSGAEVKKPGASVKVSCKASGYTFTIYYIHWVRQAPGQGLEWMGIINPSGGSTSYAQKFQGRVTMTRDTSTSTVYMELSSLRSEDTAVYYCSGNDYVDYVTTDYYGMDVWGQGTTVTVSS VL: DIQMTQSPSSLSASVGDRVTITCRASQGISNYLAWFQQKPGKAPKSLIYAASSLQSGVPSKFSGSGSGTDFTLTISSLQPEDFATYYCQQYNSSPYTFGQGTKLEIK | binds | 
E9 monoclonal IgG4 antibody bioconjugated to p-SCN-Bn-DFO and radiolabeled with Zr-89 (antibody, V domains shown, p-SCN-Bn-DFO chelator bioconjugated to the antibody (sites not given), radiolabeled with Zr-89) VH: QVQLVQSGAEVKKPGASVKVSCKASGYTFTSYYMHWVRQAPGQGLEWMGVINSSGGSTSYAQKFQGRVTMTRDTSTSTVYMDLSSLRSEDTAVYYCARGYCTNGVYYDEDFDYWGQGTLVTVSS VL: DIQMTQSPSSLSASVGDRVTITCRASQGISHYLAWFQQKPGKAPTSLIYAASSLQSGVPSKFSGSGSGTDFTLTISSLQPEDFATYYCQQYNSYPLTFGGGTKVEIK |  | binds
